Measurements taken from US20160024208A1 (Regeneron, published 2016).
Positions count from the first letter of the chain named.

B1: H1M797N (antibody, V domains shown)
VH: QVQLVESGGGVVQPGRSLRLSCAASGFTFSSYGMHWVRQAPGKGLEWVAVISYDGNNKHFADSVKGRFTISRDNSKNTLNLQMNSLRAEDRAVYYCARGASGFVLDIWGQGTMVTVSS
VL: DIVMTQTPLSSPVTLGQPASISCRSSQSLVRSDGNTYLSWLQQRPGQPPRLLIYKISNRFSGVPDRFSGSGAGTDFTLKISRVEAEDVGIYFCMQTTQFPFTFGPGTKVDIK
B2: H1H1006B (antibody, V domains shown)
VH: EVQLVESGPGLVKSSETLSLKCTVSGGSISSSGYYWGWIRQPPGKGLEWIGSIHRSGSTFYNPSLKSRVTISVDTSKSQFSLRLTSVTAADTSVYFCGRHGRDYYYGMDVWGQGTTVTVSS
VL: DIQMTQSPSSVSASVGDRVTITCRSSQDINNWLVWYQQKPGKAPKVLIYGASRLQSGVPSRFSGSGSGTDFTLTISSLQPEDFATYYCQQANSFPLTFGGGTKVEIKR
notes: Fully human antibody; also called H4H1006B-1
B3: H1M852N (antibody, V domains shown)
VH: QVQLVESGGGVVQPGRSLTLSCAASGFMFNRFGMHWVRQAPGKGLDWVAVIWYDGSNKYYADSVKGRFTISRDNSKNTLYLQVNSLRAEDTAVYYCAREGTPHYYDSSGLDYWGQGTLVTVSS
VL: AIQMTQSPSSLSAYVGDRVTITCRASQDIRNDLGWYQQKPGKAPNLLIYDISSLQSGVPSRFSGSGSGTDFTLTISSLQPEDFATYYCLQDYNYPLTFGGGTKVEIK
notes: constant region may differ; also called H4H852N
B4: H1M801N (antibody, V domains shown)
VH: QVQVVESGGGVVQPGRSLRLSCAASGFTFSNYGMHWVRQAPGKGLEWVTVISYDGSNKNYADSVKGRFTISRDNSKNTLYLQMNSLRAEDTAMYYCARGGSGFAFDIWGQGTMVTVSS
VL: B1 VL with E86D, I90V, F92Y
notes: also called H1H801N
B5: H1M836N (antibody, V domains shown)
VH: QVQLVESGGGVVQPGRSLRLSCAASGFTFSSYGMHWVRQAPGKGLEWVAVISYDGNNKYYADSVKGRFTISRDNSKNTLYLQMNSLRAEDTAVYYCAKGSAGYALDYWGQGTLVTVSS
VL: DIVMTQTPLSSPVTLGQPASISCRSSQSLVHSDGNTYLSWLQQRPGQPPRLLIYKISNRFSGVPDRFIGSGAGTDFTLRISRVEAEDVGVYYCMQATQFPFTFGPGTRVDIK
B6: H1M879N (antibody, V domains shown)
VH: EVQLVESGGGLVKPGGSLRLSCAASGFTFSSYTIHWVRQAPGKGLEWVSSISSSSSYIYYVDSVKGRFTISRDNAKNSVYLQMNSLRAEDTAVYYCATSSITARGYFDYWGQGTLVTVSS
VL: EIVLTQSPATLSLSPGERVTLSCRASQSVSSYLAWYQQKPGQAPRLLIYDASNRATGIPARFSGSGSGTDFTLTISSLEPEDFAVYYCQQRNIWPPTFGQGTKVEIK
notes: Hybridoma-derived

target: T1, full-length human Nav1.7 fused at its N-terminus to GFP, expressed in HEK293 cells (human, UniProt Q15858 1-1988); assay: cell-based or functional assay

| Binder | Current blocking (Average % inhibition), IonWorks Quattro, 223 nM antibody [%] |
| --- | --- |
| B1 | -31 |
| B2 | 64 |
| B3 | 7 |

Target: T2, C-term Biotin Nav1.7 (3-1) peptide, human (human, not fully specified; C-terminal biotin attached via a G4S linker)
T2 construct: Synthetic peptide; also called Human Nav1.7 3-1 C-term biotin
T2 peptide: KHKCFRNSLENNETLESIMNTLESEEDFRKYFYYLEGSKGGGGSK
Assay: SPR, captured biotin-peptide, antibody analyte

| Binder | Kd [nM] | t1/2 [h] | binding result |
| --- | --- | --- | --- |
| B1 | 0.359 | 1.65 | – |
| B2 | 0.239 | 1.36 | – |
| B3 | – | – | no binding |
| B4 | 0.511 | 1.18 | – |
| B5 | 19.2 | 0.0633 | – |
| B6 | 0.27 | 1.45 | – |

target: T1, full-length human Nav1.7 fused at its …; assay: flow cytometry; % stained hNav1.7-GFP-HEK293 minus parental HEK293
Method in brief: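 Percent-stained values come from FACS of healthy live cells, taking transfected-cell staining minus parental HEK293 staining. Cells were exposed on ice for 20 min to 1-13 nM antibody, then 20 min to 1.7 nM fluorescent anti-human or anti-mouse Fc secondary.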

| Binder | % Binding Nav1.7 [%] |
| --- | --- |
| B1 | 14.4 |
| B2 | 8.6 |
| B3 | 68.6 |
| B4 | 49.5 |
| B5 | 68.9 |
| B6 | 63 |

target: T1, full-length human Nav1.7 fused at its …; assay: flow cytometry on Nav1.7-GFP-HEK293, antibody 3.3 nM preincubated with 3.3 uM EC 3-1 peptide as competitor
Procedure: The specificity of binding of anti-Naᵥ 1.7 human antibodies to full-length Naᵥ 1.7 expressed in HEK293 cells was determined by peptide competition experiments using flow cytometry.
HEK293 cells stably-transfected with full-length Naᵥ 1.7 fused at its N-terminus to GFP (Naᵥ 1.7-GFP-HEK293) were used for this study. Antibody binding to the transfected cells overexpressing Naᵥ 1.7 was compared to binding in the presence of excess peptide and to binding to the parental HEK293 cell line. To perform the binding experiments, adherent cells were collected using 1 mM EDTA in PBS, washed and re-suspended in cold PBS containing 5% FBS. For each binding experiment the anti-Naᵥ 1.7 antibody at a final concentration of 3.3 nM (in PBS/5% FBS) was added to cells either directly or after incubating for 10 min on ice with a 1000-fold molar excess (3.3 uM final concentration in PBS/5% FBS) of synthetic peptide with sequence corresponding to the loop specificity of the antibody. The antibodies designated as H4H391P, H4H443B, H4H448B, and H1M797N were preincubated as described above with a synthetic peptide corresponding to EC loop 3-1 (amino acid residues 269-338 of SEQ ID NO: 670), whereas the antibodies designated as H4H468P and H1 M852N were preincubated with a synthetic peptide corresponding to EC loop 3-3 (amino acid residues 1333-1382 of SEQ ID NO: 670). The antibody or antibody-peptide mixture was then allowed to incubate with cells for 20 min on ice, followed by addition of 500 uL of cold PBS/5% FBS. Cells were collected by centrifugation, resuspended in 500 uL of cold PBS/5% FBS, and then secondary antibody matched to the antibody isotype (either anti-human-Fc conjugated to Cyanine 5 or anti-mouse-Fc conjugated to allophyococyanin) was added. Binding was detected on the flow cytometry instrument and analyzed as percent binding using the instrument software. For FACS analysis appropriate gating was applied so that only healthy, live cells were counted. Background staining of secondary antibodies alone to Naᵥ 1.7-GFP-HEK293 cells was tested and recorded for all samples, and results ranged between 1-2% binding.

| Binder | % Binding Nav1.7 + 1000x Peptide (Competition Binding) [%] |
| --- | --- |
| B1 | 10.8 |
| B4 | 1.9 |
| B5 | 2.2 |
| B6 | 1.3 |
